Bridge positions count the residues as written; N and C are the ends. Ends that are not written are not given here.
B1: SPKR4NL1-2: chimeric protein: (SPKR)4 DNA-binding domain, α-helical linker, targeting domain with loops 1 and 2 of NGF (aa 17–67), His10 tag (protein)
chain: MGHHHHHHHHHHSSGHIEGRHMSPKRSPKRSPKRSPKRGGTYLSEDELKAAEAAFKRHNPTGSCSVSVWVGDKTTATDIKGKEVMVLGEVNINNSVFKQYFFETKCRDPNPVDSG
modifications: SPKR4NL1-2

Assays:
[1] = test system: PC12 (TrkA and p75^NTR positive) cells; experiment: Gene delivery in vitro (pCAGluc luciferase reporter), PC12 cells; type: cell-based, rat
Experimental: A PC12 (rat pheochromocytoma) cell line was obtained from ATCC (American Type Culture Collection, Manassas, Va., USA) and cultured in RPMI-1640 medium supplemented with 10% fetal bovine serum (FBS) and 5% horse serum. PC12 cells are known to express TrkA and p75^NTR receptors. A COS7 (African green monkey kidney fibroblast) cell line was obtained from ATCC and cultured in Dulbecco's modified Eagle's medium (DMEM) supplemented with 10% fetal bovine serum, 50 U/ml penicillin, and 50 μg/ml streptomycin. The cells were maintained in a 37° C., 5% CO2, humidified incubator.
To determine the transfection efficiencies of our nucleic acid delivery systems, we employ a reporter plasmid, pCAGluc (a gift from Yoshiharu Matsuura, National Institute of Infectious Diseases, Tokyo, Japan), encoding firefly luciferase under the control of the composite promoter, CAG. CAG comprises the chicken β-actin promoter and the cytomegalovirus immediate early enhancer.
TrkA-targeting gene delivery complexes were tested for transfection efficiency in vitro in PC12 (TrkA and p75^NTR positive) cells and COS7 (neurotrophin receptor negative) cells. The cells were grown to 50–70% confluency in microplate wells (24-, 48-, or 96-well plates). The gene delivery complexes were prepared according to specifications presented for each example. Transfection was accomplished by replacing the serum-enriched medium with half the usual volume of reduced-serum medium, Opti-MEM (Invitrogen), containing the gene delivery complexes. Where specifically mentioned, 100 μM of chloroquine was also added to help the complexes escape from endosomes. After four hours of incubation, the cells were restored to the normal medium volume and serum concentration, either by topping up with medium containing twice the usual serum concentration (RPMI-1640 with 20% FBS and 10% horse serum for PC12) or by completely replacing the medium.
One to two days after transfection, the cell culture medium was removed and the cells were rinsed in phosphate-buffered saline (PBS). Enough Reporter Lysis Buffer (Promega, Wisconsin, Md., USA) to cover the bottom surface was added to each well (50 μl/well for 48-well plates). After one freeze-thaw cycle, the lysates were tested for luciferase activity using the Luciferase Assay System (Promega) and a single-tube luminometer (Berthold Lumat L B 9507, Bad Wildbad, Germany). The total protein concentration of each lysate was determined using the DC Protein assay (Bio-Rad, Hercules, Calif., USA). The results were expressed in relative light units (RLU) per milligram of total protein.

[2] = test system: primary cortical neurons; experiment: Gene delivery to primary cultures of cortical neurons; type: cell-based, rat
Experimental: Primary cultures of neurons were established from the cortices of embryonic Wistar rats at gestational day 20. Cortices freed of meninges were dissected and individual cells were dispersed mechanically by trituration of minced tissue in 3 ml DMEM medium supplemented with 2% FBS. The suspension was allowed to settle in a centrifuge tube. The cells in the supernatant were collected by centrifugation and resuspended gently in DMEM with 10% FBS. Viability of the cells was assessed prior to plating using trypan blue. Cells were plated onto microplates pre-coated with poly-L-lysine/laminin at a density of 7.5×10^5 viable cells/cm^2. After a two-hour incubation period to allow neurons to attach, the medium and unattached cells were removed and replaced by serum-free DMEM/F12 medium with 1% N2 supplement (Invitrogen, Carlsbad, Calif., USA). The cell were then incubated at 37° C. in 5% CO2 in a humidified incubator. After 2–5 days of culture, the neuron cells were used for transfection experiments. Gene delivery complexes were also tested on primary cultures of cortical neurons and glial cells in a similar fashion. […] Four hours later, an equal volume of DMEM-F12/N2 was added. One to two days after transfection, the cell culture medium was removed and the cells were rinsed in phosphate-buffered saline (PBS). Enough Reporter Lysis Buffer (Promega, Wisconsin, Md., USA) to cover the bottom surface was added to each well (50 μl/well for 48-well plates). After one freeze-thaw cycle, the lysates were tested for luciferase activity using the Luciferase Assay System (Promega) and a single-tube luminometer (Berthold Lumat L B 9507, Bad Wildbad, Germany). The total protein concentration of each lysate was determined using the DC Protein assay (Bio-Rad, Hercules, Calif., USA). The results were expressed in relative light units (RLU) per milligram of total protein.

[3] = test system: dorsal root ganglia (DRG); experiment: Gene delivery in vivo, intrathecal injection, dorsal root ganglia; design: species or system rat; conditions: 3 days
From the text: In vivo gene delivery was studied by intrathecal injections of adult Wistar rats (8 weeks old, 180–200 g). The rats were anesthetized by intraperitoneal injection of sodium pentobarbital. After the skin around L4–L5 was exposed, the gene delivery complex was slowly injected into the subarachnoid space using a syringe. A slight tail movement accompanied correct placement of the needle. After injection, the syringe was left in place for five minutes to limit diffusion caused by backflow pressure. Multiple injections were sometimes required to deliver the full volume of the complex. After injection, the skin was closed with surgical clips and the animals were kept warm until they recovered. […] The lumbar segment of the spinal cord and the lumbar dorsal root ganglia were excised. The tissues were homogenized in 100–400 μl of Reporter Lysis Buffer (Promega) depending on size and subjected to three freeze-thaw cycles. The lysates were centrifuged at 14000 g for 5 min at 4° C. The supernatant was tested for luciferase activity using the Luciferase Assay System (Promega) in a single-tube luminometer (Berthold Lumat LB 9507). The readings were normalized by the total protein content of the lysates, as measured by the DC Protein assay (Bio-Rad).

[4] = biological target: T1, TrkA (Rattus norvegicus, UniProt P35739); experiment: Phospho-TrkA immunoblot in PC12 cells; type: cell-based
T1 construct: endogenous in cells; host or cells: PC12 (rat pheochromocytoma, ATCC)
T1 sequence (P35739 33-799): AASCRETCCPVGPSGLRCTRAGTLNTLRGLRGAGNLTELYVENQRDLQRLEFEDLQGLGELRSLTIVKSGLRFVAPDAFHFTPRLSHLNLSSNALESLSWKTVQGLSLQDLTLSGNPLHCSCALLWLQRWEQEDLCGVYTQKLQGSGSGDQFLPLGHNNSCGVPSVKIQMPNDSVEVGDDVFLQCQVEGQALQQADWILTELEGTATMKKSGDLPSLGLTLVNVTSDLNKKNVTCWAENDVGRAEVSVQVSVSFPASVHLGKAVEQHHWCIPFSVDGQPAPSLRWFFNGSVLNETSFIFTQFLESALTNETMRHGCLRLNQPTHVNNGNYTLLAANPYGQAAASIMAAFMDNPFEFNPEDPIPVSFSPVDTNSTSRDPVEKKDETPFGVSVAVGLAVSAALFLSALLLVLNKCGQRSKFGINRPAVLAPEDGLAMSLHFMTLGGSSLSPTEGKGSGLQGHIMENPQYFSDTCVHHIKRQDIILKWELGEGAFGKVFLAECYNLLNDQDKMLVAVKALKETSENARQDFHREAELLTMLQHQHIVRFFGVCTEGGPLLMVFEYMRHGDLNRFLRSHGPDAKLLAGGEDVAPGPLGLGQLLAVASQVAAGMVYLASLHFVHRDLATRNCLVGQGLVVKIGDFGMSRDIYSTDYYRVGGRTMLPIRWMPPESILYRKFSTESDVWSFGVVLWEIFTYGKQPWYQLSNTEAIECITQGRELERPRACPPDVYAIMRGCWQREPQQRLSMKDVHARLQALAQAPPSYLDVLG
Experimental: Immunoblotting experiments were conducted to test whether the chimeric polypeptides could, like NGF, induce autophosphorylation of TrkA and activation of its signal transduction pathways. PC12 cells were seeded in 6-well plates at a density of 2×10^6 cells/well and cultured in RPMI 1640 containing 0.5% FBS and 0.25% horse serum for 2 days. The low serum concentrations were necessary to reduce the basal levels of phosphorylation. The medium was refreshed two hours before beginning treatment. The cells were incubated with the polypeptides or NGF in serum-free medium for 15–20 min. The cells were then washed in PBS, lysed, and sonicated. The cell lysates were resolved by SDS-PAGE and transferred to a nitrocellulose membrane for immunoblotting. The primary antibodies used include Phospho-TrkA (Tyr490) antibody, Phospho-p44/p42 MAPK (Thr202/Tyr204) monoclonal antibody, and Phospho-Akt (Ser473) monoclonal antibody, all obtained from Cell Signaling Technology (Beverly, Mass., USA). Colorimetric detection was performed by standard techniques after using horse-radish peroxidase-conjugated secondary antibodies. In some experiments, TrkA tyrosine kinase inhibitors K-252a or AG879 (both from Calbiochem, La Jolla, Calif., USA) were used. In these cases, PC12 cells were incubated with 100 nM K-252a or 10 μM AG879 before addition of polypeptides or NGF.

Molecule	gene delivery at N/P ratio of 1 (in words) ([1]; 0.3 nmol peptide with 1 μg pCAGluc, 100 μM chloroquine)	transfection efficiency relative to a mixture of NL4 and 10K peptides ([1]; 1.5 nmol peptide per μg DNA (N/P ratio of 5), 100 μM chloroquine, 24 h)	dose-response of transfection efficiency with increasing amount of peptide ([1]; 1 μg pCAGluc/well, 100 μM chloroquine)	gene transfer efficiency relative to the non-targeted control (10K) ([2]; peptide/DNA 0.75 nmol/μg (N/P ratio of 2.5), chloroquine)	luciferase gene expression in DRG relative to PEI600/pCAGluc/10K ([3]; 3 μg pCAGluc, PEI600 N/P 5, peptide N/P 5, intralumbar)	activation (phosphorylation) of TrkA ([4]; 5 μM peptide, 20 min)	activity when complexed with DNA ([4]; NL4-10K/DNA complexes (N/P ratio of 5))	transfection efficiency of complexes of polypeptide and DNA alone ([1]; no polycation)	transgene expression relative to PEI600 alone ([1]; triple complexes with PEI600, highest amount of SPKR4NL1-2 tested)	transfection efficiency relative to PLL without SPKR4NL1-2 ([1]; triple complexes with poly-L-lysine (MW 1000), chloroquine, optimal amount of SPKR4NL1-2)	effectiveness of triple complexes relative to (SPKR)4 triple complexes ([2]; 0.25 μg/well pCAGluc, PEI600, 24 h)	transgene expression in lumbar DRG relative to PEI600/pCAGluc control ([3]; 4 μg pCAGluc, PEI600 N/P 5, 32 nmol peptide, intrathecal)	activation of TrkA (phospho-TrkA Western blot) ([4]; 8 μM, 20 min)
CTTTHTFVKALTMDGKQAAWRFIRIDTACKKKKKKKKKK (CTTTHTFVKALTMDGKQAAWRFIRIDTACKKKKKKKKKK; disulfide 1-29) [NL4-10K]	modest gene delivery	110 times	increased markedly	22 fold	twice as high	induced activation	retained its activity	–	–	–	–	–	–
B1	–	–	–	–	–	–	–	relatively weak transfection efficiencies	5000 fold	1000 times	nine times	nine times	activates TrkA

Source: patent US7205387B2, “Recombinant polypeptide useful for neurotrophin receptor mediated gene delivery and as neurotrophin agonist” (Agency for Science, Technology and Research, priority 2003, dated 2007)
